# According to the supplement of paper PMC9170038:
# Tested on: MS2 coat protein
# Test: apparent KD of MS2 coat protein; designed switch direction (-1 OFF switch, 1 ON switch): -1; higher = weaker reporter binding
# How it was run: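 RNA switches sharing common flanks were transcribed by stalled E. coli RNA polymerase on Illumina chips. A doubling series of SNAP-549-labelled MS2 coat protein, from 0.7 or 1.5 nM to 3 µM, was applied in Tris-HCl pH 7.5 buffer with KCl, MgCl2, BSA, DTT, tRNA and Tween-20. Each step lasted 0.8–1.5 h at the bottom of the series and 10–20 min at the top. Normalised cluster fluorescence was curve-fitted, giving apparent KD as the per-design median over clusters.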
# [1] = input ligand: microRNA oligo, concentration not stated
# [2] = Eterna round: R95, input ligand: microRNA oligo, concentration not stated
# [3] = Eterna round: R95, input ligand: FMN 200 uM
# [4] = Eterna round: R95, input ligand: none
Sequence,apparent KD of MS2 coat protein (input ligand: FMN 200 uM),apparent KD of MS2 coat protein [1],apparent KD of MS2 coat protein (input ligand: none),apparent KD of MS2 coat protein [2],apparent KD of MS2 coat protein [3],apparent KD of MS2 coat protein [4]
"CCUCCGGUACGAGGAUAUCUGACGGCCGCCGGAGGAGAAGGCGUACAUGAGGAUCACCCAUGUCCAGCGUGCACCACGCUGGUU [Usbius] (Eterna round: R96, puzzle: Exclusion NG 1)",119 nM,38.1 nM,44.9 nM,–,–,–
GCAGGUUAAGUCAGGAUAUACCUAUGGAUACAUAGGUAGAAGGGACAUGAGGAUCACCCAUGUGCCUCACCUGC [Fiskers BMX 4 - 19] (puzzle: Brourd's mod of Exclusion 4),–,–,–,16.8 nM,–,–
CGUGACUCAGGAUAUCUAUAAUAUCACAUGAGGAUCACCCAUGUCCAGCGAAAGCUGGAGAGAGAAGGGAGUCACG [Fiskers Ex 5 - 36] (puzzle: Exclusion 5),–,–,–,67.3 nM,67.7 nM,61.5 nM
"UAUUAGCAAGCGAGAUCCUACAUGAGGAUCACCCAUGUGCUCGUCUUAUAAGGUACUGUGACGAAAGUCACGGUACC [Eli 91 v36] (Eterna round: R97, puzzle: Sensor, turn-off variant 1)",18.2 nM,–,27.5 nM,–,–,–
"UUAAUGGUUGUGAGGAUAUCGGAUAGAUAGAUAUUCGAGAAGGCACAUGAGGAUCACCCAUGUGUGAUUAGAAA [JR_BMEx4_Sub049] (Eterna round: R97, puzzle: Brourd's mod of Exclusion 4)",260 nM,–,24.6 nM,–,–,–
"AGUUGGCGAGGAUAUACAUGAGGAUCACCCAUGUGUGAGAUAUAAGUGAGGUAAAUAUGUAGAAGGCGCUGACA [JR_Ex3_Sub079] (Eterna round: R97, puzzle: Exclusion 3)",18.4 nM,–,425 nM,–,–,–
CUGAUGUUAGGAUAUCAGGCGCCCGCCACUGGCAAAGCGCAUGAGAAGGGACAUGAGGAUCACCCAUGUAGUAA [Ussoisrebe] (puzzle: Exclusion 4),–,–,–,27.7 nM,–,–
"ACUCCAUAUGUGAGGAUAUGGAAAGAAAAUAAAAUCCAGAAGGCACAUGAGGAUCACCCAUGUACCGCAGGGAC [BmEX4 A.29] (Eterna round: R97, puzzle: Brourd's mod of Exclusion 4)",17.7 nM,–,14.5 nM,–,–,–
AAAGAGCGAGGAUAUACGUAUCGGUGCGGCCAGCCGAUGUGACAUGAGGAUCACCCAUGUAGAAGGCGCAGAAA [Excls2-IX] (puzzle: Exclusion 2),–,–,–,23.4 nM,–,–
"AUCGUGUGAGGAUAUCGAUGUUGGACGUCUAGGUCUGUGCGCGAGAAGGCACAUGAGGAUCACCCAUGUAAUGG [jl-ex4-4.26 ViennaUCT mod] (Eterna round: R97, puzzle: Exclusion 4)",137 nM,–,347 nM,–,–,–
GAAAAGGUAGGAUAUACGAAAAAAAAGGGUAGAAAAAAAACACAUGAGGAUCACCCAUGUAGAAGGACCAAAAU [salish99_ex2_r3_051] (puzzle: Exclusion 2),–,–,–,29.2 nM,76.9 nM,26.7 nM
GUGAAGGUAGGAUAUACGAUAAUAUAGGGUAGAUAUAUAACACAUGAGGAUCACCCAUGUAGAAGGACCAAGUG [Mat - Exclusion 2 - Mod of my Tesla design - D61] (puzzle: Exclusion 2),–,–,–,46 nM,–,–
UAGGUACAUGAGGAUCACCCAUGUGAGGAUAUAGUUGAAGAUUGCGAGAGGGAGAGGACUAGAAGGCACAGUGG [JR_Exclu1_Sub037] (puzzle: Exclusion 1),–,–,–,40.9 nM,–,–
"GAGAGAGCCAUAGGAUAUGCCCGCCCGCUUGCGGCAGAAGGAUGUUGACAUGAGGAUCACCCAUGUGGAUCGCCCAUGUUUGUG [All by luck] (Eterna round: R96, puzzle: Exclusion NG 1)",604 nM,191 nM,286 nM,–,–,–
"UAUUAACAAGUAAGAUCCCACAUGAGGAUCACCCAUGUGCUCGUCUUAUAAGGUACUGUGACGAAAGUCACGGUACC [Sensor 3, v1 - 87] (puzzle: Sensor v3, turn-off variant 1)",–,–,–,953 nM,16.9 nM,13 nM
"GAUUAUGCGAGCUUUAGGGACAUGAGGAUCACCCAUGUUCGUCUUAUUGGUCUGGGUACACUGACAUACCUAAAUCU [JMF 72] (puzzle: Sensor v3, turn-off variant 1)",–,–,–,42.2 nM,33.9 nM,32.4 nM
"AUAAUGUGAGGAUAUCAGUCGACUAGCUUCGGCUAGUCGACUGAGAAGGCACAUGAGGAUCACCCAUGUAGAUC [E4/17-A1] (Eterna round: R97, puzzle: Exclusion 4)",59 nM,–,925 nM,–,–,–

Sequence,apparent KD of MS2 coat protein (input ligand: FMN 200 uM),apparent KD of MS2 coat protein [1],apparent KD of MS2 coat protein (input ligand: none),apparent KD of MS2 coat protein [2],apparent KD of MS2 coat protein [3],apparent KD of MS2 coat protein [4]
"AUUAGUAAUAAGGAUAUCACUAGCCUCGGCUAGUGAGAAGGUAUUACAUGAGGAUCACCCAUGUGAUUAAUUAA [E6/5-A2] (Eterna round: R97, puzzle: Exclusion 6)",463 nM,–,79.7 nM,–,–,–
"CGCGGCGCGUAGGAUAUUGGGUCGGACGGCAAAUAAGAAGGACGCACAUGAGGAUCACCCAUGUCGAAAGCACA [Eternabot (Original) Solution 17] (Eterna round: R97, puzzle: Exclusion 6)",27.8 nM,–,33.7 nM,–,–,–
UCGGCGCGAGGAUAUACGGUUGCUUGGUAGGGUCGUGGCGUACAUGAGGAUCACCCAUGUAGAAGGCGCGCCGC [Apr-15 SS2-31] (puzzle: Exclusion 2),–,–,–,15.9 nM,–,–
"UAUAUGUCAGGAUAUUAGUAGUAAAUAAAUAAAAUUAUUACUGAGAAGGGACAUGAGGAUCACCCAUGUACCUU [Salish 062 v32] (Eterna round: R97, puzzle: Exclusion 4)",16.1 nM,–,15.5 nM,–,–,–
GCCAGAGCAGGAUAUUCAAUAAUCCACAUGAGGAUCACCCAUGUCCUGCGAAAGCAGGAGGGAGAAGGGCUCUGGC [Mat - Exclusion 5 - Eli mod - D89] (puzzle: Exclusion 5),–,–,–,75.7 nM,37.7 nM,81.9 nM
"CGCAGACGAGGAUAUAGAUGGAAUGACAUGAGGAUCACCCAUGUGAUCGAUCUAUUGGGUUUAGAAGGUGUCUGCG [JR_Ex5_Sub046] (Eterna round: R97, puzzle: Exclusion 5)",14.4 nM,–,15.2 nM,–,–,–
"AGUACUAACACGAAAGUGUUUGUACAAUAAGCUUGUGAAACAUGAGGAUCACCCAUGUCCUCAUAAGCUCGUCUUAU [salish99_TOv2_r3_035] (puzzle: Sensor v3, turn-off variant 2)",–,–,–,580 nM,17.5 nM,17.1 nM
"UUUAAGGGAAUUAAGAUCACAUGAGGAUCACCCAUGUAUAUAUAGGAUAUCAGCUCGUGUAGAGCUGAGAAGGAUAUAUACAUA [ExNG3/6-A3] (Eterna round: R96, puzzle: Exclusion NG 3)",101 nM,32.8 nM,132 nM,–,–,–
"UGAUCUAGCGGAGGAUAUACAUGAGGAUCACCCAUGUAUACUCUAUGACCGUAGUCGUGGAGCGUGUAGAAGGCCGCUAGAUCU [JL ENG2 3.76] (Eterna round: R96, puzzle: Exclusion NG 2)",14.6 nM,9.1 nM,11.6 nM,–,–,–
GGGUUACAUGAGGAUCACCCAUGUGAGGAUAUGAUACUAUGUACUUCGGUACAUAGUAUCAGAAGGCACAUCCC [Ex1-3: 20] (puzzle: Exclusion 1),–,–,–,31.4 nM,–,–
GGUUGGCGAGGAUAUACAUGAGGAUCACCCAUGUGAGCGAAAAAAGUGAGGAAGAAAAGUAGAAGGCGCUGACG [salish99_ex3_r3_020] (puzzle: Exclusion 3),–,–,–,40.1 nM,236 nM,63.5 nM
"UGCAUGUAAGGAUAUGCAUCCGCCGACGUCCCGGCGGCACAGCAGAAGGUACAUGAGGAUCACCCAUGUGUCCC [Qusousar] (Eterna round: R96, puzzle: Exclusion 4)",449 nM,24 nM,31 nM,–,–,–
"AGAAAUGCCCAUGGCCGCAAGCUUUUUGCUUGUCUUACCACAUGAGGAUCACCCAUGUGACAUGGGCUCCUGAUAAU [Bivequ] (puzzle: Sensor v3, turn-off variant 2)",–,–,–,10.7 nM,13.7 nM,12.1 nM
"AUAAUUAAUCGAGGAUAUCAGCACGUUUAGUGCUGAGAAGGCGACAUGAGGAUCACCCAUGUGAUCAAUUAAUAUUAAUAUUAU [ENG1/11-C2] (Eterna round: R96, puzzle: Exclusion NG 1)",898 nM,230 nM,369 nM,–,–,–
"CUGAGCAGACGGAGAUCCAACAUGAGGAUCACCCAUGUCUCAAAAGCUUAUUGCUCGUCUUAUCCUCCUCUGUUCAC [Mat - Sensor, turn-off var - Eli Mod - D54] (Eterna round: R97, puzzle: Sensor, turn-off variant 1)",26.9 nM,–,26.7 nM,–,–,–
"GACUGAAUUUUGUUUGGUUACAUGAGGAUCACCCAUGUUGGUCUAAGAACAUGUCUUUUGUACGCUUGUCUUAUAUA [JR_SV3TOV1_Sub069] (puzzle: Sensor v3, turn-off variant 1)",–,–,–,44.9 nM,68.9 nM,100 nM
"AUAAUACAUGUAGGAUAUCUGCACGUGUAGUGCAGAGAAGGACAUGAGGAUCACCCAUGUAAUUAAGAUCAAUUAUUAAAUUAU [ENG1/3-D3] (Eterna round: R96, puzzle: Exclusion NG 1)",228 nM,53.6 nM,75.6 nM,–,–,–
